This note sets out measurements from article doi:10.1101/2021.03.15.435440 (bioRxiv, 2021).

The target of this assay is SARS-CoV-2 spike (6P) (SARS-CoV-2, Wuhan-Hu-1 reference, UniProt P0DTC2, stabilised). Briefly: cryo-EM structure.

B1: Ab16 Fab (Fab, V domains shown)
VH: EVQLQQSGPELVKPGASVKISCKASGYSFNNYYMNWVKQSPEKSLEWIGEINPNSGYTSYNQKFRAKATLTVDKSSTTAYMQLKSLTSEDSAVYYCARYFGNLFAMDFWGQGTSVTVS
VL: DILMTQSPSSMSVSLGDTVSITCHASQGIGSNIGWLQQKPGKSFKGLIYLGTNLEDGVPSRFSGSGSGADYSLTISSLESEDFADYYCVQYVQFPYTFGGGTKLEIK
Turning to B1, the binding result is listed as “binds”.
